According to article PMC5818423, “Molecular Evidence of Adenosine Deaminase Linking Adenosine A2A Receptor and CD26 Proteins” (Frontiers in Pharmacology, 2018):

Columns and labels:
[1] = biological target: A2AR-Nluc-spacer (human adenosine A2A receptor fused to NanoLuc on the N-terminal end, with spacer) (human, UniProt P29274 1-412); experiment: cell-based or functional assay
[2] = biological target: A2AR (human adenosine A2A receptor, non-fused) (human, UniProt P29274 1-412); experiment: cell-based or functional assay
Sequence of A2AR (human adenosine A2A receptor, non-fused) (P29274 whole entry, the tested form may be a part): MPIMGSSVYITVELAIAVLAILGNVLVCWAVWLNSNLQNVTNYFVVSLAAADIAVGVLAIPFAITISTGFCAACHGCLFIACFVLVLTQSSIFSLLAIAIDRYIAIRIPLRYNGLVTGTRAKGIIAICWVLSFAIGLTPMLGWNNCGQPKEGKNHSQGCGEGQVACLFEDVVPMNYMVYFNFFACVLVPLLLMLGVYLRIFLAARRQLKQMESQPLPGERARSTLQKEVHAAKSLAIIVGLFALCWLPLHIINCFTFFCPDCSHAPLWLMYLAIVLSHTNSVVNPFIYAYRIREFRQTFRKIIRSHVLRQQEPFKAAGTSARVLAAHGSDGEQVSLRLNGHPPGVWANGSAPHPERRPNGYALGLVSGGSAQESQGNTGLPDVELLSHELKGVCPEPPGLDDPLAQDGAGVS

Sequence of A2AR-Nluc-spacer (human adenosine A2A receptor fused to NanoLuc on the N-terminal end, with spacer) (P29274 whole entry, the tested form may be a part): as above

B1: Bovine adenosine deaminase (ADA) (enzyme, UniProt P56658 1-363, looked up)
chain: MAQTPAFNKPKVELHVHLDGAIKPETILYYGRKRGIALPADTPEELQNIIGMDKPLSLPEFLAKFDYYMPAIAGCREAVKRIAYEFVEMKAKDGVVYVEVRYSPHLLANSKVEPIPWNQAEGDLTPDEVVSLVNQGLQEGERDFGVKVRSILCCMRHQPSWSSEVVELCKKYREQTVVAIDLAGDETIEGSSLFPGHVKAYAEAVKSGVHRTVHAGEVGSANVVKEAVDTLKTERLGHGYHTLEDATLYNRLRQENMHFEVCPWSSYLTGAWKPDTEHPVVRFKNDQVNYSLNTDDPLIFKSTLDTDYQMTKNEMGFTEEEFKRLNINAAKSSFLPEDEKKELLDLLYKAYGMPSPASAEQCL
EC50: concentration of ADA (0.1 ng/ml to 10 ug/ml) providing half-maximal increase in binding of 2.2 nM [3H]ZM 241385 to membranes of transfected HEK-293T cells [1]: 14 ng/mL
EC50: concentration of ADA (0.1 ng/ml to 10 ug/ml) providing half-maximal increase in binding of 2.2 nM [3H]ZM 241385 to membranes of transfected HEK-293T cells [2]: 4 ng/mL
